Data published in publication PMC1226315 (Nucleic Acids Research, 2005).

Target: human wild-type Cdk2 GST fusion protein (human, UniProt P24941 1-298)
Test: pull-down

B1: Recombinant human wild-type DNA polymerase λ, His-tagged (enzyme)
chain: MDPRGILKAFPKRQKIHADASSKVLAKIPRREEGEEAEEWLSSLRAHVVRTGIGRARAELFEKQIVQHGGQLCPAQGPGVTHIVVDEGMDYERALRLLRLPQLPPGAQLVKSAWLSLCLQERRLVDVAGFSIFIPSRYLDHPQPSKAEQDASIPPGTHEALLQTALSPPPPPTRPVSPPQKAKEAPNTQAQPISDDEASDGEETQVSAADLEALISGHYPTSLEGDCEPSPAPAVLDKWVCAQPSSQKATNHNLHITEKLEVLAKAYSVQGDKWRALGYAKAINALKSFHKPVTSYQEACSIPGIGKRMAEKIIEILESGHLRKLDHISESVPVLELFSNIWGAGTKTAQMWYQQGFRSLEDIRSQASLTTQQAIGLKHYSDFLERMPREEATEIEQTVQKAAQAFNSGLLCVACGSYRRGKATCGDVDVLITHPDGRSHRGIFSRLLDSLRQEGFLTDDLVSQEENGQQQKYLGVCRLPGPGRRHRRLDIIVVPYSEFACALLYFTGSAHFNRSMRALAKTKGMSLSEHALSTAVVRNTHGCKVGPGRVLPTPTEKDVFRLLGLPYREPAERDW
B1: binds.
